# Measured values from patent US20240383999A1 (University of Texas, published 2024).
# T1: Human recombinant CD5L protein (Sino Biological, Catalog Number 10791-H08H) (human, UniProt O43866 20-347)
# T1 construct: Bought protein; also called human CD5L; CD5L-His; not shown: 6xHIS-tag
# T1 sequence (looked up): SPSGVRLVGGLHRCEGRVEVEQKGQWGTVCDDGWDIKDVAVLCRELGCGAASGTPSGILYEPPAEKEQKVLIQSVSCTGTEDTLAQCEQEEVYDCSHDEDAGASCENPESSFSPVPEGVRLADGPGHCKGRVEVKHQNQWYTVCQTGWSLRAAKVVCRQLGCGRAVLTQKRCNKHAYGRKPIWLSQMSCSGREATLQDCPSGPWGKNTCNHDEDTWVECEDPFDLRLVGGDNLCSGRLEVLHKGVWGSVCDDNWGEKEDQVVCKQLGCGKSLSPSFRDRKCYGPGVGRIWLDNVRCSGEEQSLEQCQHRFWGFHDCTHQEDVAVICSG
# Biological target: T1, Human recombinant CD5L protein (Sino …)
# Assay: titration ELISA, human CD5L coated on plate
# Protocol: FIG. 11. […] Bound antibody was detected using a secondary antibody against rabbit IgG conjugated with HRP and TMB substrate for detection of A450 nm. EC₅₀ was estimated using GraphPad software by applying a 4-parameter fitting to calculate binding affinity of the antibodies.
# Binding constants (EC₅₀) of a panel of monoclonal antibodies were estimated by titration ELISA, and the data were analyzed using the 4-parameter curve fitting with GraphPad Prism program (Table 6).
row,Binder,EC50
1,"R-5 (antibody, V domains shown) VH: QSVKESGGRLVTPGTPLTLTCTVSGFSLSSYAMSWVRQAPGKGLEWIGVIDVTGRTYYASWAKGRFTISKTSTTVDLKITSPTTEDTATYFCGRDSYLDYGDPNGLDPWGPGTLVTISS VL: ELVMTQTPASVEAAVGGTVTIKCQASQSIGSNLAWYQQKPGQPPKLLIYTASNLAPGVSSRFKGSRSGTESTLIISDLECADAATYYCQCTYYGTSYMELGAFGGGTELEIK",0.148 µg/mL
2,"R-10 (antibody, V domains shown) VH: QSVKESGGRLVTPGTPLTLTCTLSGIDLSSYAMGWVRQAPGKGLEYIGIIGASGTTYYANWAKGRFTISRTSTTVDLKITSPTTEDTATYFCARAGYAGTGYPTRLDLWGQGTLVTISS VL: ELDMTQTPASVEAAVGGTVTIKCQASQSISSSYLAWYQQKPGQPPKLLIYKASTLESGVPSRFSGSGSGTEFTLTISGVQCDDAATYYCLGGYFSFSNYDYGFGGGTEVEIK",0.307 µg/mL
3,"R-11 (antibody, V domains shown) VH: QSVKESGGDLVKPGASLTLTCTASGFDFSSNTMCWVRQAPGKGLEYIGYISYSGATHYASWAKGRFTISKTLSTTVTLQMTSLTDADTATYFCARDRGYVDGSYYGDFNLWGPGTLVTVSS VL: ELVMTQTPSSASEPVGGTVTIKCQASQSIASRLAWFQQKPGQPPKLLIYRASTLESGVSSRFKGSGFGTEFTLTISDLECADAATYYCQSYYGSGYGKTFGGGTDVVVK",0.0474 µg/mL
4,"H-119 (antibody, V domains shown) VH: EVQLVQSGAEVKKPGESLKISCKGSGYSFTSYWIGWVRQMPGKGLEWMGIIYPGDSDTRYSPSFQGQVTISADKSISTAYLQWSSLKASDTAMYYCARGLAASTRFDPWGQGTLVTVSS VL: DVQMTQSPSSLSASVGDRVTITCRPSQSINNYLNWYQQKPGEAPKLLIYAASNLQSGVPSRFSGSGSGTDFTLTISSLQPEDFGTYYCQQSYSIPLTFGGGTTVEIK",0.0068 µg/mL
5,"R-4 (antibody, V domains shown) VH: QSVEESGGRLVTPGTPLTLTCTASGFSLSSYYMTWVRQAPGKGLEYIGIISDRGSTYYASWAKGRFTIAKTSSTTVDLKLTSLTTEDTATYFCYRGVDGSGGYAAGDLWGQGTLVTISS VL: ELVLTQTPASVEAAVGGTVTIKCQASEDIYSYFAWYQQKPGQRPRLLIYEASKVASGVPSRFKGGGSGTQFTLTISDLECADAATYYCQNNFYMIGDDYGGTFGGGTEVEIK",0.0713 µg/mL
6,"R-9 (antibody, V domains shown) VH: QSVKESGGRLVTPGTPLTLTCTVSGFYLSTHGMTWVRQAPGKGLEYIGVIVTSGNTYYATWATGRFTISKTSTTVDLKITSPTTEDTATYFCARPGYKSVPLWGQGTLVTISS VL: ELDLTQTPASVSAAVGGTVTINCQASEDIYSGLTWYQQKPGQPPKLLIYRASTLASGVPPRFKGSGSGTEFTLTISDLECDDAATYYCQNNYGSSSNNYVFAFGGGTEVEIK",0.136 µg/mL
7,"R-39 (antibody, V domains shown) VH: QSLEESGGRLVTPGGSLTLTCTVSGIDLSSYTMGWVRQAPGKGLEWIGVIAINGGTVYASWAKGRFTISKTSTTVDLKMTSPTPEDTATYFCARGAGKTWSSFNLWGQGTLVTISS VL: ELVLTQTPASVSEPVGGTVTIKCQASQSIGSNLAWYQQKPGQPPKLLIYRASTLESGVPSRFSGSGSGTEFTLTISDLECADAATYYCQSYYGSSTNAFGGGTEVVVK",0.246 µg/mL
8,"R-36 (antibody, V domains shown) VH: QSVKESGGGLFQPGGSLALTCKASGFSLSKNYVMCWVRQAPGKGLEWIACIYAGDGNTYYVSWAKGRFTISKTSSTTVTLQMTSLTAADTATYFCARWDYIGNNNLWGPGTLVTISS VL: ELVLTQTPASVEAAVGGTVTIKCQASQTISSYLAWYQQKPGQPPKLLIYRASTLASGVPSRFKGSGSGTQFTLTISDLECADGATYYCQCPYYGSSHVGAFGGGTEVVVK",0.278 µg/mL
9,"R-23 (antibody, V domains shown) VH: QSVEESGGRLVMPGGSLTLTCTVSGIDLSSNTMGWFRQAPGKGLEWIGIMRGGGSTYYATWAKGRFTISKTSTTVDLKLTSPTTEDTATYFCARAFPGYNSFFNFWGQGTLVTISS VL: ELDLTQTPASVSEPVGGTVTIKCQASHNINSALAWYQQKPGQPPKLLIYKASTLASGVPPRFKGSGSGTEFTLTISDLECADAATYYCQRHYFDGASADIAFGGGTEVVVK",0.14 µg/mL
10,"R-29 (antibody, V domains shown) VH: QSVEESGGRLVTPGTPLTLTCTVSGFSLSSYAMNWVRQAPGKGLEWIGLIYASGTTHYASWVNGRFTISKTSTTVTLKMTSLTAADTATYFCARDSYSTGNLWGQGTLVTISS VL: ELVLTQTPASVSEPVGGTVTIKCQASQSIYSSLVWYQQKPGQPPKLLIYGASNLESGVPSRFKGSGSGTEYTLTISGVQCADAATYYCQCSGYNSRVFGGGTEVEIK",0.161 µg/mL
11,"R-21 (antibody, V domains shown) VH: QSVEESGGRLVTPGTPLTLTCTVSGIDLSSYAINWVRQAPGEGLEWIGMISSSDNTYYANWAKGRFTISRDSTTVDLKITSPTTEDTATYFCARFYAGRSYSLWGQGTLVTISS VL: ELDLTQTPASVSAAVGGTVTISCQSSESVYKSNYLSWYQQKAGQPPKLLIYAAATLASGVPSRFKGSGSGTQFTLTISGVQCDDAATYYCQGTYYSSGWYNAFGGGTEVVVK",0.21 µg/mL
12,"R-1 (antibody, V domains shown) VH: QSVEESGGRLVTPGTPLTLTCTVSGIDLSNYAINWVRQAPGKGLEWIGMISSGDVTYYASWAKGRFIISRTSSTTVDLKMTSPTIEDTATYFCARFFAGRSESLWGQGTLVTVSS VL: ELDLTQTPSSVSAAVGGTVTINCQSSQSVNKNNYLSWYQQKPGQPPKLLIYSASALASGVSSRFSGSGSGTEFTLTISDVQCDDAATYYCQGTYYDSGWYNAFGGGTEVEIK",0.0598 µg/mL
13,"R-51 (antibody, V domains shown) VH: QSVKESGGRLVTPGTPLTLTCTVSTIDVSKYAVIWVRQAPGKGLEYIGIISSSGSTYYASWAKGRFTISKTSSTTVDLKMTSPTAEDTATYFCARGGNGVAFKLWGQGTLVTISS VL: ELDLTQTPASVEAAVGGTVTINCQASQSIYSSLAWYQQKPGQPPKLLIYETSKVESGVPSRFSGSGSGTQFTLTISDLECADAATYYCQSHDYISSSGMPFGGGTELEIL",0.0144 µg/mL
14,"R-6 (antibody, V domains shown) VH: QSLEESGGRLVTPGTPLTLTCTVSTIDVSKYAVIWVRQAPGKGLEYIGIISSSGSTYYASWAKGRFTISKTSSTTVDLKMTSPTAEDTATYFCARGGNGVAFKLWGQGTLVTISS VL: ELDMTQTPASVEAAVGGTVTINCQASESINDRLAWYQLKPGQPPKLLIYETSQVESGVPSRFSGSGSGTQFTLTISDLECADAATYYCQSHDYISSSGMPFGGGTEVVVK",0.187 µg/mL
15,"R-49 (antibody, V domains shown) VH: QSVKESGGRLVTPGTPLTLTCTVSGFSLSINAINWVRQAPGKGLEWIGIITNIGNTYYASWAKGRFTISRTSTTVDLTMTSLTTEDTATYFCARNSYFDPWGPGTLVTISS VL: ELVLTQTPSPVSAAVGGTVSISCQASQSVDSNNYCSWYQQKPGQPPKLLIHKASKLASGVPSRFKGSGSGTQFTLTINDLECDDAATYYCAGGLGDNIYAFGGGTEVEIN",0.0077 µg/mL

# Biological target: T1, Human recombinant CD5L protein (Sino …)
# Assay: BLI (Octet RED96), antibody on Protein A biosensors, CD5L-His in solution, global fit
# Protocol: Kinetic binding parameters (KD, kon, and koff) in (Table 11) were determined using Octet RED96 instrument and binding curves are shown in FIG. 17. […] KDs are calculated using Octet software with global fitting model.
Binder,Kd,koff,kon
"CD5L-35Hu-1 (antibody, V domains shown, also called humanized CD5L-35Hu mAb (CD5L-35Hu-H1 + CD5L-35Hu-K1)) VH: QVQLVESGGGVVQPGRSLRLSCAASGIDLSDYYMTWVRQAPGKGLEYIGIIYASGNAYFASWAKGRFTISRDSSTNTLFLQMNSLRAEDTAVYYCARNIGGSSNLWGQGTLVTVSS VL: AIQLTQSPSSLSASVGDRVTITCQASERIYNNLAWYQQKPGKAPKLLFYSASTLASGVPSRFSGSGSGTDFTLTISSLQPEDFATYYCQCTGYGTTYGLVFGGGTKVEIK",< 1 pM,< 1e-07 s⁻¹,146000 M⁻¹ s⁻¹
"CD5L-35Hu-3 (antibody, V domains shown, also called humanized CD5L-35Hu mAb (CD5L-35Hu-H2 + CD5L-35Hu-K1)) VH: QVQLVESGGGVVQPGRSLRLSCAASGIDLSDYYMTWVRQAPGKGLEYIGIIYASGNAYFASWAKGRFTISRDNSTNTVFLQMNSLRAEDTAVYYCARNIGGSSNLWGQGTLVTVSS VL: AIQLTQSPSSLSASVGDRVTITCQASERIYNNLAWYQQKPGKAPKLLFYSASTLASGVPSRFSGSGSGTDFTLTISSLQPEDFATYYCQCTGYGTTYGLVFGGGTKVEIK",< 1 pM,< 1e-07 s⁻¹,119000 M⁻¹ s⁻¹
"CD5L-35Hu-4 (antibody, V domains shown, also called humanized CD5L-35Hu mAb (CD5L-35Hu-H2 + CD5L-35Hu-K2)) VH: QVQLVESGGGVVQPGRSLRLSCAASGIDLSDYYMTWVRQAPGKGLEYIGIIYASGNAYFASWAKGRFTISRDNSTNTVFLQMNSLRAEDTAVYYCARNIGGSSNLWGQGTLVTVSS VL: ELQLTQTPSSLSASVGDRVTIKCQASERIYNNLAWYQQKPGKAPKLLFYSASTLASGVPSRFSGSGSGTDFTLTISSLQPEDFATYYCQCTGYGTTYGLVFGGGTKVEIK",< 1 pM,< 1e-07 s⁻¹,106000 M⁻¹ s⁻¹
"CD5L-35Hu-2 (antibody, V domains shown, also called humanized CD5L-35Hu mAb (CD5L-35Hu-H1 + CD5L-35Hu-K2)) VH: QVQLVESGGGVVQPGRSLRLSCAASGIDLSDYYMTWVRQAPGKGLEYIGIIYASGNAYFASWAKGRFTISRDSSTNTLFLQMNSLRAEDTAVYYCARNIGGSSNLWGQGTLVTVSS VL: ELQLTQTPSSLSASVGDRVTIKCQASERIYNNLAWYQQKPGKAPKLLFYSASTLASGVPSRFSGSGSGTDFTLTISSLQPEDFATYYCQCTGYGTTYGLVFGGGTKVEIK",< 1 pM,< 1e-07 s⁻¹,125000 M⁻¹ s⁻¹
